B1: Lysine-specific demethylase 2B, residues 656 to 722; numbered along this chain, Q8NHM5 (parent)
chain: LPHTAVCLVCGEAGKEDTVEEEEGKFNLMLMECSICNEIIHPGCLKIKESEGVVNDELPNCWECPKC

Variants of: B1
Assay: abundance fitness (aPCA) (normalised: wild type 0, dead -1); higher = more abundant; growth selection in yeast, the domain comes from the species named
Conditions: Homo sapiens

Abundance fitness, by site and new letter:
E57: T -0.007
S50: K -0.025 | Y 0.312 | W -0.156 | E 0.034 | D 0.085 | I -0.036 | G 0.169 | C 0.078 | M -0.155 | V 0.039 | P 0.087 | R -0.128 | Q -0.111 | H -0.208 | F 0.039
L58: G -0.171 | V -0.036 | R 0.076 | T 0.206 | E 0.011 | P -0.408 | A -0.454 | C 0.066 | Q -0.107 | K 0.14 | S 0.051 | W -0.149 | H 0.194
C64: S -0.797 | R -0.888 | D -0.85 | F -0.719 | Q -0.662 | T -0.952 | G -0.889 | H 0.218 | L -0.935 | M -0.923 | E -0.718 | P -0.684 | V -0.95 | A -1.05 | K -0.749 | W -0.775 | I -0.778 | Y -0.804
P59: S -0.071 | T -0.012 | F -0.261 | C -0.076 | W -0.319 | M -0.183 | G -0.076 | V 0.007 | N 0.214 | D -0.424 | Q -0.024 | R 0.015 | A -0.117 | E 0.249 | K 0.076
E49: A 0.104 | T 0.045 | M -0.005 | R -0.103 | Q -0.079 | N 0.262 | C -0.039 | L -0.077 | S -0.061 | P 0.024 | Y -0.187 | W -0.235 | I -0.244 | K -0.123 | D -0.198 | G 0.008
L45: W -0.493 | Q 0.069 | K -0.402 | T -0.085 | M 0.032 | R -0.002 | V -0.092 | P -0.515 | S 0.081
K46: W -0.148 | G 0.205 | H -0.532 | P 0.077 | Q 0.195 | R 0.016 | E 0.206 | Y 0.042 | A -0.01 | D 0.224 | I -0.311 | L 0.007 | S 0.206 | T 0.211 | V -0.058
V54: K -0.125 | R 0.042 | P -0.065 | G -0.182 | E 0.024 | D -0.119 | A 0.089 | W -0.124 | S -0.284 | Q 0.135 | T 0.126 | I 0.126 | C -0.275
V53: P -0.15 | A 0.047 | F -0.343 | M -0.045 | C -0.027 | K -0.167 | I -0.07 | N -0.136 | S 0.006 | G -0.078 | L -0.119 | E 0.003 | Q 0.164 | R -0.148 | T 0.078 | H -0.346
C61: M -0.12 | K 0.005 | T 0.248 | P -0.054 | D -0.475 | H 0.309 | E -0.105 | Y 0.073 | S 0.018 | W -0.171 | A 0.053 | L -0.04 | N -0.675 | I -0.349 | R 0.042 | G -0.192 | F -0.325 | Q -0.08
I47: A -0.014 | Y -0.007 | R -0.207 | C -0.168 | H -0.242 | G 0.011 | W -0.09 | M 0.16 | F -0.047 | E 0.038 | Q -0.167 | D -0.261 | K -0.17 | L -0.133 | T 0.08 | V 0.006 | S -0.002 | N -0.307

Reference: the Human Domainome abundance scans (Beltran et al. 2025)
